This assay addresses 160 kd cell surface receptor (human (endogenous in MDA.MB.231 and 184A1)). The assay can be described thus: radioligand binding; competition: 5 nM 125I-labelled TAA.62(T) on MDA.MB.231 monolayers with or without unlabelled peptide (cells preincubated with the growth factors), 2 h at 4 C, EBSS with 20 mM Hepes pH 7.4 and 1% BSA; specific binding as % of control.
On to “epidermal growth factor (from UniProt P01133 971-1023) (ligand)”, for which the specific binding of 125I-TAA.62(T) (% of control) was 102 % of control.

“transforming growth factor-beta (ligand)”: the specific binding of 125I-TAA.62(T) (% of control) is 95 % of control.

“insulin-like growth factor (from UniProt P05019 49-118) (ligand)”: the specific binding of 125I-TAA.62(T) (% of control) was 97 % of control.

Consider “transforming growth factor-alpha (from UniProt P01135 40-89) (ligand)”, for which the specific binding of 125I-TAA.62(T) (% of control) is 98 % of control.

For the origin of these results see paper PMC1977871.
